Target: Q394X truncation of the ER-tethered Ste6 NBD2 chimera (yeast)
Assay: co-IP

fold above background: 2 fold
Substance: Hsp104 (from UniProt P31539 1-908) (natural protein)
